Results on two molecules are retold here after patent US20240101652A1 (SINGH BIOTECHNOLOGY, published 2024).

Test [1] addresses STAT3 (endogenous, in human cells and from lysed cancer cell lines) (human, UniProt P40763 2-770). In words: cell-based or functional assay.
The target in test [2] is T1, Human STAT3 Protein (recombinant) (human, UniProt P40763 1-770).
T1 construct: also called recombinant STAT3
Briefly: SPR, Biacore 3000.

Where “and” joins values, the source holds several entries; their conditions need not be identical. Identical values can stand only once.

B1: Anti-KRAS/Anti-STAT3 VHH (SBT-100 (SEQ ID NO: 1)) (VHH)
VHH: HVQLVESGGGSVQAGGSLRLSCAASGANGGRSCMGWFRQVPGKEREGVSGISTGGLITYYADSVKGRFTISQDNTKNTLYLQMNSLKPEDTAMYYCATSRFDCYRGSWFNRYMYNSWGQGTQVTVSS
Regarding B1, the “IC50, STAT3 luciferase reporter assay in HEK 293 cells after IL-6 stimulation” value in test [1] was 2.68 µg/mL and 0.18 µM.

B2: Anti-KRAS VHH (SBT-102 (SEQ ID NO: 2)) (VHH)
VHH: EVQLVESGGGSVQTGGSLRLSCAVSGNIGSSYCMGWFRQAPGKKREAVARIVRDGATGYADYVKGRFTISRDSAKNTLYLQMNRLIPEDTAIYYCAADLPPGCLTQAIWNFGYRGQGTLVTVSS
For B2, the binding result in test [2] is on record as “no binding”.
